Patent US20100184088A1 (ONCOTHERAPY SCIENCE, published 2010)

What was measured:
[1] = target: T1, recombinant GST-fused VEGFR1#1 (codons 800-1000)
T1 chain: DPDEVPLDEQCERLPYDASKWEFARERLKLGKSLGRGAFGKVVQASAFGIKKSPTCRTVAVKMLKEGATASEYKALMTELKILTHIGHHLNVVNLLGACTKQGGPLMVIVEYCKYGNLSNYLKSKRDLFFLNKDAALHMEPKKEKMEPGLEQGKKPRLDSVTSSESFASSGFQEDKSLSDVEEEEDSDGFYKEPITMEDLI

[2] = target: T2, HA-tagged SMYD3 (human, UniProt Q9H7B4 1-428); test: co-immunoprecipitation (IP anti-HA, immunoblot anti-Flag), HEK293 cells
T2 construct: also called ZNFN3A1; not shown: HA tag
T2 sequence: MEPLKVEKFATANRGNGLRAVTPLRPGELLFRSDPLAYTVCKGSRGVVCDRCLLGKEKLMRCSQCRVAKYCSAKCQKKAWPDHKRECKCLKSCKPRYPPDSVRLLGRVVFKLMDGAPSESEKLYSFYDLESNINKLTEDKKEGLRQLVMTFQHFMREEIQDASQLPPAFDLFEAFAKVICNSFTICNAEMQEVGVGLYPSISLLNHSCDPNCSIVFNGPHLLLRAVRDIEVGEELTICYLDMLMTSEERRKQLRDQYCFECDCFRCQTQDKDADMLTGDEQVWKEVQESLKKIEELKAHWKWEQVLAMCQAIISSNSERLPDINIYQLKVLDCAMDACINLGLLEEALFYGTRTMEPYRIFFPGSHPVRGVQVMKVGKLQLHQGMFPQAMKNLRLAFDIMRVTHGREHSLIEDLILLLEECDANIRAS
Protocol: Extraction of protein, IP, and Western blot analysis were performed according to methods described in the literature (Hamamoto R et al., S Nature cell biology 2004, 6(8): 731-40). Immunoblot analysis was carried out with anti-SMYD3 (Abcam, Cambridge, Mass.), anti-HA (Sigma, St Louis, Mo.), anti-Flag (Sigma), anti-GST (B D Pharmingen, San Diego, Calif.), anti-beta-actin (Sigma), or anti-phospho-Tyrosine (PY20; Sigma) antibodies. HRP-conjugated second antibody was used for the ECL Detection System (Amersham Biosciences, Piscataway, N.J.). Recombinant histone H3 and VEGFR1 (3108) were purchased from Upstate Biotechnology (Lake Placid, N.Y.) and Calbiochem (San Diego, Calif.), respectively.
Since VEGFR1 was methylated by SMYD3, the inventors investigated whether SMYD3 interacts with VEGFR1. The present inventors expressed Flag-tagged cytoplasmic regions of VEGFR1 together with HA-tagged SMYD3 in HEK293 cells. Immunoprecipitation with anti-HA antibody, and subsequent immunoblot analysis with anti-Flag antibody disclosed that SMYD3 associates with VEGFR1#1 (codons 800-1000) but not VEGFR1#2 or VEGFR1#3 (FIG. 3a). Consistently, IP with anti-Flag antibody and subsequent immunoblot analysis with anti-HA antibody corroborated the interaction between SMYD3 and VEGFR1#1 (FIG. 3a). […]

[3] = target: T3, HA-tagged VEGFR1 (human, UniProt P17948 800-1338, limits assumed); test: co-immunoprecipitation (anti-HA or anti-Flag IP, western blot), HEK293 cells
T3 construct: also called HA-VEGFR1; cytoplasmic domain of VEGFR1; not shown: HA tag (pCMV-HA vector)
T3 sequence: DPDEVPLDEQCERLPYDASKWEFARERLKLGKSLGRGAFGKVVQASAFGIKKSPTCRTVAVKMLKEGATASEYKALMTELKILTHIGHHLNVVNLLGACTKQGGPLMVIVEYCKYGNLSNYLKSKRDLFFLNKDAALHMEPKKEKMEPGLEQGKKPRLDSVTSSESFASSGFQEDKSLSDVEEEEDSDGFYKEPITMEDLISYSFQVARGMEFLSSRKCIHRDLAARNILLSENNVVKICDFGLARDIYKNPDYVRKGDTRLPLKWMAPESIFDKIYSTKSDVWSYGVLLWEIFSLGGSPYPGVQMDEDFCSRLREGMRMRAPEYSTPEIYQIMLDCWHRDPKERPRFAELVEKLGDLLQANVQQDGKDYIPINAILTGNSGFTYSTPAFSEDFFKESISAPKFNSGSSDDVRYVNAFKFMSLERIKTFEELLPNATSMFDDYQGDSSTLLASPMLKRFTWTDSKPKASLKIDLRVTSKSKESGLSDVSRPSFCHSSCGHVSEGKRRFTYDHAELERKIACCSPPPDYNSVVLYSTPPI
Text: FIG. 3 depicts the interaction between SMYD3 and VEGFR1. Part a depicts the interaction between SMYD3 and VEGFR1, examined by a co-immunoprecipitation assay using extract from HEK293 cells expressing HA-tagged SMYD3 and different regions of Flag-tagged VEGFR1 (VEGFR1#1, #2, and #3). Part b depicts the interaction of endogenous SMYD3 with VEGFR1. Whole cell extracts from SNU423, SW480, and MCF7 cells expressing both SMYD3 and VEGFR1 were precipitated with anti-SMYD3 antibody. The precipitants were immunoblotted with anti-VEGFR-1 antibody (upper panel) or anti-SMYD3 antibody (lower panel). Part c depicts the association of VEGFR1 with the SET domain of SMYD3. Wild type or deleted forms of Flag-tagged SMYD3 (N-20, delta 2, or delta 3) were co-expressed with HA-tagged VEGFR1 in HEK293 cells. IP was performed with either anti-HA or anti-Flag antibody, and the precipitants were analyzed by western blot analysis with anti-Flag (upper panel) or anti-HA (lower panel) antibody. Part d depicts the interaction of the cytoplasmic region of VEGFR1 with the SET domain of SMYD3 in vivo. Flag-tagged wild type or the SET domain of SMYD3 was co-expressed with HA-tagged VEGFR1 in HEK293 cells. Extracts from the cells were precipitated with anti-Flag (upper panel) or anti-HA (lower panel) antibodies, and the precipitants were analyzed by western blot analysis with anti-HA antibody. […]

| Binder | binding result [2] | also measured |
| --- | --- | --- |
| Flag-tagged wild-type SMYD3 (p3XFLAG-CMV-SMYD3) (protein) MEPLKVEKFATANRGNGLRAVTPLRPGELLFRSDPLAYTVCKGSRGVVCDRCLLGKEKLMRCSQCRVAKYCSAKCQKKAWPDHKRECKCLKSCKPRYPPDSVRLLGRVVFKLMDGAPSESEKLYSFYDLESNINKLTEDKKEGLRQLVMTFQHFMREEIQDASQLPPAFDLFEAFAKVICNSFTICNAEMQEVGVGLYPSISLLNHSCDPNCSIVFNGPHLLLRAVRDIEVGEELTICYLDMLMTSEERRKQLRDQYCFECDCFRCQTQDKDADMLTGDEQVWKEVQESLKKIEELKAHWKWEQVLAMCQAIISSNSERLPDINIYQLKVLDCAMDACINLGLLEEALFYGTRTMEPYRIFFPGSHPVRGVQVMKVGKLQLHQGMFPQAMKNLRLAFDIMRVTHGREHSLIEDLILLLEECDANIRAS |  | in vitro MTase assay, methylation compared to recombinant histone H3 [1]: Approximately three-fold higher methylation of VEGFR1#1 was detected as compared to recombinant histone H3 in vitro (data not shown) |
| Flag-tagged VEGFR1#2 (codons 1000-1200) (receptor, Cytoplasmic fragment of VEGFR1 expressed in HEK293 cells; also called flag-VEGFR1#2; not shown: Flag tag (3xFlag vector)) ISYSFQVARGMEFLSSRKCIHRDLAARNILLSENNVVKICDFGLARDIYKNPDYVRKGDTRLPLKWMAPESIFDKIYSTKSDVWSYGVLLWEIFSLGGSPYPGVQMDEDFCSRLREGMRMRAPEYSTPEIYQIMLDCWHRDPKERPRFAELVEKLGDLLQANVQQDGKDYIPINAILTGNSGFTYSTPAFSEDFFKESISA | no binding |  |
| Flag-tagged VEGFR1#3 (codons 1200-1338) (receptor, Cytoplasmic fragment of VEGFR1 expressed in HEK293 cells; also called flag-VEGFR1#3; not shown: Flag tag (3xFlag vector)) APKFNSGSSDDVRYVNAFKFMSLERIKTFEELLPNATSMFDDYQGDSSTLLASPMLKRFTWTDSKPKASLKIDLRVTSKSKESGLSDVSRPSFCHSSCGHVSEGKRRFTYDHAELERKIACCSPPPDYNSVVLYSTPPI | no binding |  |
| Flag-tagged SMYD3-delta 3 (codons 250-428) (enzyme, Deleted form of SMYD3 lacking the SET domain; also called flag-SMYD3-D3; not shown: Flag tag) RKQLRDQYCFECDCFRCQTQDKDADMLTGDEQVWKEVQESLKKIEELKAHWKWEQVLAMCQAIISSNSERLPDINIYQLKVLDCAMDACINLGLLEEALFYGTRTMEPYRIFFPGSHPVRGVQVMKVGKLQLHQGMFPQAMKNLRLAFDIMRVTHGREHSLIEDLILLLEECDANIRAS |  | binding result [3]: no binding |
